The values below are quoted from earlier work in publication PMC4317059.

For one data set, the target named is Asp143 (UniProt position 144, GNAGSDLACGV). The experiment in a line: kinetics.
A further data set addresses Glu143 (UniProt position 144, GNAGSELACGV). As to the kind of experiment: kinetics.

With “Cu,Zn superoxide dismutase (SOD1) Arg143Asp mutant (Homo sapiens; R143D)”, in the data set with Asp143, the pKa result is recorded as “ca. 6.2”.
In the case of “Cu,Zn superoxide dismutase (SOD1) Arg143Glu mutant (Homo sapiens; R143E)”, the pKa entry with Glu143 is “ca. 6.2”.
